One assay addresses T1, IL-9 (Homo sapiens, UniProt P15248).
T1 construct: pcDNA3.4-IL9 (19-144)-His (P15248); His (C); made in house; host or cells: 293F cells (transient transfection)
Nature of the assay: ELISA binding of humanized antibodies to the target antigen. The following applies: ELISA of culture supernatant of 293F cells, control chimeric antibody CA1. The method, then:
ELISA was conducted according to a standard protocol to determine the affinity of a purified antibody for the IL-9-His recombinant protein. In short, the IL-9-His recombinant protein was diluted with sterile PBS and added at 100 μL/well to a 96-well plate. The plate was incubated at 4° C. overnight and then blocked with a blocking buffer. 100 μL of a purified anti-IL-9 antibody serially diluted was added to the plate, and the plate was incubated for 1 h at room temperature. PBS was added to a control well. The plate was washed with PBST 3 times. Then 100 μL of horseradish peroxidase (HRP)-labeled anti-mouse IgG H&L (BIODRAGON, CAT #BF03001) was added, and the plate was incubated for 1 h at room temperature. The plate was washed with PBST 3 times. Then a chromogenic reaction was conducted with a 3,3′,5,5′-tetramethylbenzidine (TMB) chromogenic solution at room temperature. An OD value in each well was read by a microplate reader. Data was processed with PRISM GraphPad, and curves were plotted. The EC50 value for each candidate antibody was calculated.
Humanized antibody expression vectors carrying a designed heavy-chain or light-chain sequence were transiently transfected into 293F cells in pairs, and then a resulting culture supernatant was collected. According to a standard protocol (with reference to part 5.1 in Example 1), with a human-mouse chimeric antibody CA1 constructed with VH and VL of the original murine antibody as a control, the binding of a humanized antibody to a target antigen was detected by ELISA. The method for ELISA was the same as described in 5.1 of Example 1. […] In the follow-up experiments, the four combinations of VH1−VL2, VH1−VL4, VH2−VL4, and VH3−VL4 (hu.CA1 to hu.CA4) were taken as examples for antibody purification and function testing. […]
(ELISA stands for enzyme-linked immunosorbent assay.)

In the next assay the target is T2, IL-9 antigen protein (Homo sapiens, UniProt P15248).
T2 construct: pcDNA3.4-IL9 (19-144)-His (P15248) and pLVX-Fc2-IL9 (19-144)-Puro; made in house; host or cells: 293F cells (transient transfection)
The experiment in a line: ForteBio (BLI) affinity detection. Type of assay: binding. The following applies: antibody immobilized on Protein A sensor, antigen 7.81-125 nM. The method, then:
The affinity of a humanized antibody was detected by ForteBio (BLI). The chimeric (as a control) and humanized antibodies were immobilized with a Protein A sensor (SARTORIUS, Cat #18-5010) at an immobilization height of about 1 nm. An antigen protein sample was serially diluted with PBS to 125 nM, 62.5 nM, 31.25 nM, 15.625 nM, 7.81 nM, and 0 nM. An affinity detection procedure was as follows: equilibration for 60 s, binding for 180 s, and dissociation for 180 s.
On the technique in general: BLI is a label-free optical method that tracks binding on a fibre tip over time.

Assay [1] concerns the target T3, IL-9-His recombinant protein (UniProt P15248 19-144).
T3 construct: range 19-144; used as coating antigen in the ELISAs; also called IL9 (19-144)-His; not shown: His tag, C-terminal by the vector name
The experiment in a line: BLI (ForteBio), antibody on Protein A sensor, antigen 7.81-125 nM in solution.

Assay [2] concerns the target T3, IL-9-His recombinant protein. Nature of the assay: ELISA on coated IL-9-His, OD450; unit taken from the x axis, the table prints none.
Protocol: ELISA was conducted according to a standard protocol to determine the affinity of a purified antibody for the IL-9-His recombinant protein. In short, the IL-9-His recombinant protein was diluted with sterile PBS and added at 100 μL/well to a 96-well plate. The plate was incubated at 4° C. overnight and then blocked with a blocking buffer. 100 μL of a purified anti-IL-9 antibody serially diluted was added to the plate, and the plate was incubated for 1 h at room temperature. PBS was added to a control well. The plate was washed with PBST 3 times. Then 100 μL of horseradish peroxidase (HRP)-labeled anti-mouse IgG H&L (BIODRAGON, CAT #BF03001) was added, and the plate was incubated for 1 h at room temperature. The plate was washed with PBST 3 times. Then a chromogenic reaction was conducted with a 3,3′,5,5′-tetramethylbenzidine (TMB) chromogenic solution at room temperature. An OD value in each well was read by a microplate reader. Data was processed with PRISM GraphPad, and curves were plotted. The EC₅₀ value for each candidate antibody was calculated.
Assay [3] deals with T4, biotin-conjugated IL-9-Fc (Biotin-IL-9-Fc) (UniProt P15248 19-144, biotin-conjugated (sites not given)).
T4 construct: range 19-144; also called Fc-IL-9 recombinant protein; Fc-IL-9; not shown: Fc tag (Fc2 in the vector name pLVX-Fc2-IL9 (19-144)-Puro)
The experiment in a line: flow cytometry blocking assay (IL9-IL9R blocking determination): serially diluted antibody against the binding of Biotin-IL-9-Fc to 293-IL-9R cells (IL-9R), MFI; unit taken from the x axis, the table prints none. In general terms: A flow cytometer gives signals particle by particle.

Residue numbers refer to the chain shown, from its start.

For orientation: Kd means a measure of binding affinity in units of concentration. As usually defined, the koff is the rate constant with which the complex falls apart. Usually kon stands for the rate constant with which the complex forms. The EC50 is the concentration needed to bring the measured effect to its halfway point.

T2 sequence (P15248 19-144): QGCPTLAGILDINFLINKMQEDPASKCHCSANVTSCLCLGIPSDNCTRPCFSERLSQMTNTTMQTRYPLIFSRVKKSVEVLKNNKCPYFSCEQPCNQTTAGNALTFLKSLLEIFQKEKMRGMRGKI
T4 sequence (P15248 19-144 limits assumed, form in doubt): as the sequence (P15248 19-144) above
T3 sequence (P15248 19-144 limits assumed, form in doubt): as the sequence (P15248 19-144) above
T1 sequence (P15248 19-144): as above

B1: humanized antibody VH1-VL4 (hu.CA2) (antibody, V domains shown)
VH: EVQLKQSGAEVMKPGASVKVSCKATGYTFTGYWIEWVRLAPGHGLEWMGEILPGSGSTNYNQKFQGRVTFTADTSINTAYMELSRLRSDDTAIYYCARRTYYYGIPEDYWGQGTLVTVSS
VL: DIVMTQSPKFLSASVGDRVTITCKASQNVGTNVAWHQQKPGQSPKPLIYSASYRYSGVPSRFTGSGSGTDFTLTISNLQPEDFAEYFCQQYNSYPLTFGAGTKLEIK
notes: IgG1 / kappa by the vectors pcDNA3.4-IgG1 and pcDNA3.4-IgKc; also called humanized VH1-VL4 antibody
Take B1: the “binding to IL-9” value in the assay with IL-9 is on record as “bind to IL-9 with high affinity”. In the assay with IL-9 antigen protein, this molecule had a Koff of 0.002206 s⁻¹ and a Kon of 1.165e+06 M⁻¹ s⁻¹. Also, in assay [1], the Kd was 1.89 nM, the koff turned out to be 0.00221 s⁻¹ and the kon was found to be 1.16e+06 M⁻¹ s⁻¹. Moreover, the concentration for a half-maximal effect (EC50) in assay [2] was determined as 0.0127 µg/mL. The molecule also yielded an EC50 in assay [3] of 8.18 µg/mL.

B2: CA1: human-mouse chimeric IgG1/kappa antibody with VH and VL of murine 38-D8-C7-G9 (antibody, V domains shown)
VH: EVQLKQSGAELMKPGASVKLSCKATGYTFTGYWIEWVKLRPGHGLEWIGEILPGSGSTNYNEEFKGKATFTADTSSNTAYMQLNSLTTEDSAIYYCARRTYYYGIPEDYWGQGTSVTVSS
VL: B1 VL with P8Q, L11M, A13T, T20S, I21V, S60D, L78V, P80S, F83L, I106L
In the assay with IL-9 antigen protein, B2 returned a Koff of 0.0009336 s⁻¹ and a Kon of 2.13e+06 M⁻¹ s⁻¹.

B3: humanized antibody VH2-VL4 (hu.CA3) (antibody, V domains shown)
VH: B1 VH with K5V, H43Q, I76T, R85S, D89E
VL: B1 VL
notes: IgG1 / kappa by the vectors pcDNA3.4-IgG1 and pcDNA3.4-IgKc
Turning to B3, the EC50 was found to be 0.0329 µg/mL in assay [2] and 11.7 µg/mL in assay [3].

B4: humanized antibody VH3-VL4 (hu.CA4) (antibody, V domains shown)
VH: B1 VH with K5V, H43Q, F64L, I76T, S84R, R85S
VL: B1 VL
notes: as for B3
With B4, the EC50 in assay [2] was 0.0323 µg/mL; in assay [3] it was 11.3 µg/mL.

The record behind these values is patent US20250122278A1, “ANTI-INTERLEUKIN-9 ANTIBODY AND USE THEREOF” (GUANGDONG KEGUANDA PHARMACEUTICAL TECHNOLOGY CO., LTD., priority 2022, published 2025).
